Data reported in the Human Domainome abundance scans (Beltran et al. 2025).
± gives the uncertainty stated by the source.

B1: E3 ubiquitin-protein ligase TRIM36, residues 208 to 252; numbered along this chain, Q9NQ86 (parent)
chain: KILMCPEHETERINMYCELCRRPVCHLCKLGGNHANHRVTTMSSA

Variants of: B1
Assay: abundance fitness (aPCA) (normalised: wild type 0, dead -1); higher = more abundant; growth selection in yeast, the domain comes from the species named
Conditions: Homo sapiens

Question: For KILMCPEHETERINMYCELCRRPVCHLCKLGGHHANHRVTTMSSA [N33H], which abundance fitness is on record?
Answer: Its abundance fitness is -0.046 ± 0.071.

Question: For KILMCPEHETERINMYCELCRRPVCHLCKLGGKHANHRVTTMSSA [N33K], which abundance fitness is on record?
Answer: The abundance fitness was 0.016 ± 0.061.

Question: Which abundance fitness does the source give for KILMCPEHETERINMYCELCRRPVCHLCKLGGSHANHRVTTMSSA [N33S] here?
Answer: Its abundance fitness is 0.036 ± 0.048.

Question: With KILMCPEHETERINMYCELCRRPVCHLCKLGGQHANHRVTTMSSA [N33Q] as the variant, how does the abundance fitness read?
Answer: Its abundance fitness is 0.073 ± 0.06.

Question: With KILMCPEHETERINMYCELCRRPVCHLCKLGGNVANHRVTTMSSA [H34V] as the variant, how does the abundance fitness read?
Answer: Its abundance fitness is -0.444 ± 0.056.

Question: For KILMCPEHETERINMYCELCRRPVCHLCKLGGNAANHRVTTMSSA [H34A], which abundance fitness is on record?
Answer: The abundance fitness was -0.334 ± 0.05.

Question: With KILMCPEHETERINMYCELCRRPVCHLCKLGGNHANHRVETMSSA [T40E] as the variant, how does the abundance fitness read?
Answer: Its abundance fitness is -0.04 ± 0.066.

Question: Which abundance fitness does the source give for KILMCPEHETERINMYCELCRRPVCHLCKLGGNHANHRVHTMSSA [T40H] here?
Answer: Its abundance fitness is -0.146 ± 0.069.

Question: Which abundance fitness does the source give for KILMCPEHETERINMPCELCRRPVCHLCKLGGNHANHRVTTMSSA [Y16P] here?
Answer: Its abundance fitness is -0.111 ± 0.37.

Question: For KILMCPEHETERINMDCELCRRPVCHLCKLGGNHANHRVTTMSSA [Y16D], which abundance fitness is on record?
Answer: Its abundance fitness is -0.105 ± 0.11.

Question: For KILMCPEHETERINMRCELCRRPVCHLCKLGGNHANHRVTTMSSA [Y16R], which abundance fitness is on record?
Answer: The abundance fitness was -0.069 ± 0.065.

Question: Which abundance fitness does the source give for KILMCPEHETERINMGCELCRRPVCHLCKLGGNHANHRVTTMSSA [Y16G] here?
Answer: Its abundance fitness is -0.478 ± 0.11.

Question: Which abundance fitness does the source give for KILMCPEHETERINMYCELCRRPVCHLCKLGGNHANHRVTTMSEA [S44E] here?
Answer: Its abundance fitness is 0.086 ± 0.057.

Question: With KILMCPEHETERINMYCELCRRPVCHLCKLGGNHANHRVTTMSKA [S44K] as the variant, how does the abundance fitness read?
Answer: Its abundance fitness is -0.212 ± 0.061.

Question: For KILMCPAHETERINMYCELCRRPVCHLCKLGGNHANHRVTTMSSA [E7A], which abundance fitness is on record?
Answer: The abundance fitness was -0.064 ± 0.056.

Question: For KILMCPVHETERINMYCELCRRPVCHLCKLGGNHANHRVTTMSSA [E7V], which abundance fitness is on record?
Answer: The abundance fitness was -0.011 ± 0.064.

Question: Which abundance fitness does the source give for KILMCPEHETERINMYCELCRKPVCHLCKLGGNHANHRVTTMSSA [R22K] here?
Answer: Its abundance fitness is 0.068 ± 0.067.

Question: For KILMCPEHETERINMYCELCREPVCHLCKLGGNHANHRVTTMSSA [R22E], which abundance fitness is on record?
Answer: Its abundance fitness is 0.034 ± 0.062.

Question: With KILMCPEHETERINMYCELCRRPVCHLCKLGGNHANHEVTTMSSA [R38E] as the variant, how does the abundance fitness read?
Answer: The abundance fitness was 0.085 ± 0.061.

Question: For KILMCPEHETERINMYCELCRRPVCHLCKLGGNHANHDVTTMSSA [R38D], which abundance fitness is on record?
Answer: The abundance fitness was 0.05 ± 0.069.

Question: For KILMCPEHETERINMYCELCRRPVCHLCKLGGNHANHYVTTMSSA [R38Y], which abundance fitness is on record?
Answer: The abundance fitness was -0.005 ± 0.093.

Question: For KILMCPEHETERINMYCELCRRPVCHLCKLGGNHANHWVTTMSSA [R38W], which abundance fitness is on record?
Answer: The abundance fitness was 0 ± 0.098.

Question: With KILMCPEHETERINMYCELCRRPVCHLCKLGGNHANHPVTTMSSA [R38P] as the variant, how does the abundance fitness read?
Answer: The abundance fitness was -0.011 ± 0.058.

Question: Which abundance fitness does the source give for KILMCPEHETERINMYCELCRRPVCHLCKLGGNHANHMVTTMSSA [R38M] here?
Answer: The abundance fitness was 0.008 ± 0.055.

Question: With KILMCPEHETERINMYCELCRRPVCQLCKLGGNHANHRVTTMSSA [H26Q] as the variant, how does the abundance fitness read?
Answer: The abundance fitness was 0.045 ± 0.063.

Question: Which abundance fitness does the source give for KILMCPEHETERINMYCELCRRPVCLLCKLGGNHANHRVTTMSSA [H26L] here?
Answer: Its abundance fitness is -0.161 ± 0.055.

Question: For KILMCPEHETERINMYCEQCRRPVCHLCKLGGNHANHRVTTMSSA [L19Q], which abundance fitness is on record?
Answer: Its abundance fitness is 0.004 ± 0.067.

Question: With KILMCPEHETERINMYCEKCRRPVCHLCKLGGNHANHRVTTMSSA [L19K] as the variant, how does the abundance fitness read?
Answer: The abundance fitness was 0.052 ± 0.063.

Question: For KILMCPEHETERINMYCEHCRRPVCHLCKLGGNHANHRVTTMSSA [L19H], which abundance fitness is on record?
Answer: Its abundance fitness is 0.004 ± 0.13.

Question: For KILMCPEHETERINMYCELCRRPVCHLEKLGGNHANHRVTTMSSA [C28E], which abundance fitness is on record?
Answer: The abundance fitness was -0.275 ± 0.057.

Question: Which abundance fitness does the source give for KILMSPEHETERINMYCELCRRPVCHLCKLGGNHANHRVTTMSSA [C5S] here?
Answer: Its abundance fitness is -0.765 ± 0.053.

Question: With KILMFPEHETERINMYCELCRRPVCHLCKLGGNHANHRVTTMSSA [C5F] as the variant, how does the abundance fitness read?
Answer: The abundance fitness was -1.08 ± 0.16.

Question: Which abundance fitness does the source give for KILMGPEHETERINMYCELCRRPVCHLCKLGGNHANHRVTTMSSA [C5G] here?
Answer: Its abundance fitness is -0.744 ± 0.052.

Question: Which abundance fitness does the source give for KILMCPEHETERINMYCELCRRPVCHLCKLGGNHANHRVTPMSSA [T41P] here?
Answer: The abundance fitness was -0.059 ± 0.062.

Question: Which abundance fitness does the source give for KILMCPEHETERINMYCELCRRPVCHLCKLGGNHANHRVTKMSSA [T41K] here?
Answer: Its abundance fitness is 0.007 ± 0.06.

Question: Which abundance fitness does the source give for KILMCPEHETERINMYCELCRRPVCHLCKLGGNHANHRVTNMSSA [T41N] here?
Answer: Its abundance fitness is -0.289 ± 0.16.

Question: For KILMCPEHETERINMYCELCRRPVCHLCKLGGNHANHRVTLMSSA [T41L], which abundance fitness is on record?
Answer: Its abundance fitness is -0.149 ± 0.049.

Question: Which abundance fitness does the source give for KILMCPEHETERINMYCELCERPVCHLCKLGGNHANHRVTTMSSA [R21E] here?
Answer: Its abundance fitness is 0.171 ± 0.083.

Question: With KILMCPEHETERINMYCELCCRPVCHLCKLGGNHANHRVTTMSSA [R21C] as the variant, how does the abundance fitness read?
Answer: The abundance fitness was -0.083 ± 0.081.

Question: Which abundance fitness does the source give for KILMCPEHETERINMYCELCARPVCHLCKLGGNHANHRVTTMSSA [R21A] here?
Answer: The abundance fitness was 0.002 ± 0.053.

Question: With KCLMCPEHETERINMYCELCRRPVCHLCKLGGNHANHRVTTMSSA [I2C] as the variant, how does the abundance fitness read?
Answer: Its abundance fitness is -0.345 ± 0.11.

Question: Which abundance fitness does the source give for KGLMCPEHETERINMYCELCRRPVCHLCKLGGNHANHRVTTMSSA [I2G] here?
Answer: The abundance fitness was -0.115 ± 0.048.

Question: For KILMCPEHETERINMYCELCRRPVCHLCKLGGNHAQHRVTTMSSA [N36Q], which abundance fitness is on record?
Answer: Its abundance fitness is 0.021 ± 0.063.

Question: With KILMCPEHETERINMYCELCRRPVCHLCKLGGNHAFHRVTTMSSA [N36F] as the variant, how does the abundance fitness read?
Answer: The abundance fitness was -0.017 ± 0.15.

Question: Which abundance fitness does the source give for KILMCPEHETERINMYCELCRRPVCHLCKLGGNHANARVTTMSSA [H37A] here?
Answer: Its abundance fitness is -0.027 ± 0.051.

Question: Which abundance fitness does the source give for KILMCPEHETERINMYCELCRRPVCHLCKLGGNHANKRVTTMSSA [H37K] here?
Answer: The abundance fitness was -0.176 ± 0.068.

Question: Which abundance fitness does the source give for KILMCPEHETERINMYCELCRRPVCHLCKLGGNHANRRVTTMSSA [H37R] here?
Answer: The abundance fitness was -0.242 ± 0.045.

Question: For KILMCPEHETERINMYCELCRRPVCHLCKLGGNHANMRVTTMSSA [H37M], which abundance fitness is on record?
Answer: The abundance fitness was -0.298 ± 0.069.

Question: For KILMCPEHETERINMYCELCRRPVCHLCKLGGNHANWRVTTMSSA [H37W], which abundance fitness is on record?
Answer: The abundance fitness was -0.44 ± 0.054.

Question: For KILMCPEHTTERINMYCELCRRPVCHLCKLGGNHANHRVTTMSSA [E9T], which abundance fitness is on record?
Answer: Its abundance fitness is 0.053 ± 0.053.

Question: For KILMCPEHETERIDMYCELCRRPVCHLCKLGGNHANHRVTTMSSA [N14D], which abundance fitness is on record?
Answer: The abundance fitness was -0.13 ± 0.35.

Question: Which abundance fitness does the source give for KILMCPEHETERIVMYCELCRRPVCHLCKLGGNHANHRVTTMSSA [N14V] here?
Answer: Its abundance fitness is 0.034 ± 0.16.

Question: For KILMCPEHETERIRMYCELCRRPVCHLCKLGGNHANHRVTTMSSA [N14R], which abundance fitness is on record?
Answer: Its abundance fitness is -0.149 ± 0.071.

Question: Which abundance fitness does the source give for KILMCPEHETERICMYCELCRRPVCHLCKLGGNHANHRVTTMSSA [N14C] here?
Answer: The abundance fitness was 0.106 ± 0.1.

Question: With KILMCPEHETERINMYCELCRRPVYHLCKLGGNHANHRVTTMSSA [C25Y] as the variant, how does the abundance fitness read?
Answer: The abundance fitness was -0.805 ± 0.075.

Question: For KILMCPEHETERINMYCELCRRPVDHLCKLGGNHANHRVTTMSSA [C25D], which abundance fitness is on record?
Answer: Its abundance fitness is -0.553 ± 0.11.

Question: With KILMCPEHETERINMYCELCRRPVGHLCKLGGNHANHRVTTMSSA [C25G] as the variant, how does the abundance fitness read?
Answer: Its abundance fitness is -0.556 ± 0.053.
